Data taken from the supplement of paper PMC7125110.
± gives the standard error. Variants at the floor of the assay were thinned out.

B1: glmS ribozyme (parent)
chain: AUAAAAGCGCCAGAACUACAGAAAUGUAGUUGACGAGGAGGAGGUUUAUCGAAUUUUCGGCGGAUGCCUCCAAA

Columns and labels:
Details in all cases: with glucosamine-6-phosphate
[1] = variants of: B1; assay: self-cleavage kobs at 160 uM GlcN6P; higher = faster cleavage; RNA array
In short: (§1)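 Barcoded ribozyme variants were transcribed in situ on sequenced MiSeq chips by E. coli RNA polymerase. At 37 °C, a hybridised Cy3 probe tracked them while glucosamine-6-phosphate (40 μM to 10 mM) in HEPES/KCl/Mg(OAc)2 buffer flowed in and tiles were imaged over ~14 h. Per-tile medians of signals normalised to baseline and to non-cleaving reference variants were fit to one- or two-exponential decays, giving kobs. kcat and KM came from weighted Michaelis–Menten fits across concentrations.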

[2] = variants of: B1; assay: self-cleavage kobs at 640 uM GlcN6P; higher = faster cleavage; RNA array
In short: as §1

[3] = variants of: B1; assay: self-cleavage kobs at 2500 uM GlcN6P; higher = faster cleavage; RNA array
In short: as §1

[4] = variants of: B1; assay: self-cleavage kobs at 10000 uM GlcN6P; higher = faster cleavage; RNA array
In short: as §1

| Variant | self-cleavage kobs at 160 uM GlcN6P [1] | self-cleavage kobs at 640 uM GlcN6P [2] | self-cleavage kobs at 2500 uM GlcN6P [3] | self-cleavage kobs at 10000 uM GlcN6P [4] |
| --- | --- | --- | --- | --- |
| C16G A39G A48G C58G A64U | < 1e-05 s⁻¹ | < 1e-05 s⁻¹ |  |  |
| A15G G21C A39G G40C A48C C58U | < 1e-05 s⁻¹ |  |  |  |
| G13U A15U A36C A42G G59C C67G | < 1e-05 s⁻¹ |  |  |  |
| U30C G35U A39C | < 1e-05 s⁻¹ |  | < 1e-05 s⁻¹ |  |
| U30A G41C U49A | < 1e-05 s⁻¹ | < 1e-05 s⁻¹ | < 1e-05 s⁻¹ | < 1e-05 s⁻¹ |
| G29A A52C | < 1e-05 s⁻¹ | < 1e-05 s⁻¹ |  | < 1e-05 s⁻¹ |
| C16G A33C C71U | < 1e-05 s⁻¹ | < 1e-05 s⁻¹ | < 1e-05 s⁻¹ |  |
| C16A C50G U55C G63C C70G | 0.000129 ± 4.7e-05 s⁻¹ | 0.00119 ± 0.00038 s⁻¹ |  |  |
| G13C U31G G43U | < 1e-05 s⁻¹ |  | < 1e-05 s⁻¹ |  |
| U31A U46G G66A | 6.92e-05 ± 2.9e-05 s⁻¹ | 0.000303 ± 0.00015 s⁻¹ | 0.000638 ± 0.00022 s⁻¹ |  |
| U30C A36C C50G G59C | 0.000229 ± 9.7e-05 s⁻¹ |  |  |  |
| A15G C16U A33U A39G | < 1e-05 s⁻¹ |  |  |  |
| A12U G60U C70G | < 1e-05 s⁻¹ |  |  |  |
| G32C G51A C61G | < 1e-05 s⁻¹ |  |  |  |
| A15G C16G A42G C67G | 7.28e-05 ± 3.4e-05 s⁻¹ | 0.000348 ± 6.7e-05 s⁻¹ | 0.000115 ± 3.5e-05 s⁻¹ | 0.000521 ± 0.00022 s⁻¹ |
| A14G U55A A64C C70U | 3.8e-05 ± 1.7e-05 s⁻¹ | 0.000343 ± 8.3e-05 s⁻¹ | 0.000958 ± 0.00021 s⁻¹ | 0.000686 ± 0.00019 s⁻¹ |
| A14U A15G U49A A53U | < 1e-05 s⁻¹ |  |  | < 1e-05 s⁻¹ |
| A15C U30G C34U G40A U55A | < 1e-05 s⁻¹ |  |  |  |
| G13A G35C C71U | < 1e-05 s⁻¹ | < 1e-05 s⁻¹ |  |  |
| U31A A42C C70G | < 1e-05 s⁻¹ | < 1e-05 s⁻¹ |  |  |
| A14U U55A U69A | 0.000101 ± 2.7e-05 s⁻¹ |  | 8.95e-05 ± 1.1e-05 s⁻¹ | 4.58e-05 ± 2e-05 s⁻¹ |
| U30G A42G U56C | 0.000132 ± 4.7e-05 s⁻¹ | 0.000353 ± 0.00011 s⁻¹ | 0.000492 ± 0.00016 s⁻¹ |  |
| A12U A14U A15U | 0.000236 ± 5.9e-05 s⁻¹ | 0.00051 ± 0.00013 s⁻¹ | 0.00219 ± 0.00059 s⁻¹ |  |
| U30G A36U | < 1e-05 s⁻¹ | < 1e-05 s⁻¹ |  |  |
| G13C A14G G32A | 0.000606 ± 0.00018 s⁻¹ | 0.00264 ± 0.00054 s⁻¹ | 0.00874 ± 0.0043 s⁻¹ |  |
| G26U C50G C68U | 0.000155 ± 5.5e-05 s⁻¹ |  |  |  |
| A20U U56C | 0.000306 ± 8.2e-05 s⁻¹ |  | 0.0029 ± 0.00075 s⁻¹ |  |
| C16A A33G | < 1e-05 s⁻¹ |  |  | < 1e-05 s⁻¹ |

| Variant | self-cleavage kobs at 160 uM GlcN6P [1] | self-cleavage kobs at 640 uM GlcN6P [2] | self-cleavage kobs at 2500 uM GlcN6P [3] | self-cleavage kobs at 10000 uM GlcN6P [4] |
| --- | --- | --- | --- | --- |
| A15C A33G G44A U47C G62A | < 1e-05 s⁻¹ |  |  |  |
| G13A A33G G63C | < 1e-05 s⁻¹ |  | < 1e-05 s⁻¹ |  |
| A14C G37A G43A C58U C68G | < 1e-05 s⁻¹ |  |  |  |
| A12U G35U U55G | < 1e-05 s⁻¹ |  |  |  |
| C16U G29C C50G | 0.000111 ± 3.4e-05 s⁻¹ |  | 6.6e-05 ± 2.7e-05 s⁻¹ |  |
| G13U A33G G40U | < 1e-05 s⁻¹ |  |  |  |
| G26U G35A C50G U56G | 6.16e-05 ± 2.2e-05 s⁻¹ |  | 8.89e-05 ± 1.8e-05 s⁻¹ |  |
| G32C A64G | < 1e-05 s⁻¹ |  | 5.42e-05 ± 1.9e-05 s⁻¹ |  |
| G13U G51C U65G | < 1e-05 s⁻¹ | < 1e-05 s⁻¹ |  |  |
| C16A A39U C58A U65A | < 1e-05 s⁻¹ | < 1e-05 s⁻¹ | < 1e-05 s⁻¹ |  |
| A12U C34U | < 1e-05 s⁻¹ | < 1e-05 s⁻¹ |  | < 1e-05 s⁻¹ |
| U30C C50U C70G | 5.6e-05 ± 1.7e-05 s⁻¹ | 0.000134 ± 3.3e-05 s⁻¹ | 0.000173 ± 3.3e-05 s⁻¹ |  |
| G29A G62A | < 1e-05 s⁻¹ | < 1e-05 s⁻¹ | < 1e-05 s⁻¹ |  |
| A15U A36C G41U C71G | < 1e-05 s⁻¹ | < 1e-05 s⁻¹ |  |  |
| A15G A36U C50A G60A | < 1e-05 s⁻¹ | < 1e-05 s⁻¹ |  |  |
| C16G G62C | < 1e-05 s⁻¹ | < 1e-05 s⁻¹ | < 1e-05 s⁻¹ |  |
| U30G U31C A33U U45A U55A | < 1e-05 s⁻¹ |  |  |  |
| A12U U69C | 0.000492 ± 0.00017 s⁻¹ | 0.00151 ± 0.00069 s⁻¹ | 0.00211 ± 0.00066 s⁻¹ |  |
| C16A U31C U56G | 3.96e-05 ± 1.5e-05 s⁻¹ | 9.16e-05 ± 1.9e-05 s⁻¹ | 0.000266 ± 5.4e-05 s⁻¹ |  |
| U30G G40U A42C C58A | < 1e-05 s⁻¹ | < 1e-05 s⁻¹ | < 1e-05 s⁻¹ |  |
| A14C G40U G43C C50U | < 1e-05 s⁻¹ |  | < 1e-05 s⁻¹ |  |
| U30A G35C C50G C68A C71U | 8.36e-05 ± 2.8e-05 s⁻¹ | 0.00197 ± 0.00057 s⁻¹ | 0.000671 ± 0.00025 s⁻¹ |  |
| A33C U46C U56C G59C | < 1e-05 s⁻¹ | < 1e-05 s⁻¹ | < 1e-05 s⁻¹ |  |
| G32C C71U | < 1e-05 s⁻¹ |  | 2.98e-05 ± 1.2e-05 s⁻¹ | 9.6e-05 ± 1e-05 s⁻¹ |
| G13A A53C C67G | < 1e-05 s⁻¹ | < 1e-05 s⁻¹ |  | < 1e-05 s⁻¹ |
| C16U G60C | < 1e-05 s⁻¹ | < 1e-05 s⁻¹ | < 1e-05 s⁻¹ |  |
| A14U A39C A52C | < 1e-05 s⁻¹ | < 1e-05 s⁻¹ |  |  |
